Source: publication PMC6499816 (Nature Communications, 2019)
Ends that are not written are not given here.

How the values were obtained:
Conditions in all cases: both partners purified
[1] = target: T1, LC3A (human, UniProt Q9H492 1-121); assay: BLI; biotinylated LIR peptide immobilised on streptavidin biosensors (Octet Red 96), ATG8 protein in solution; 25 mM Tris pH 7.5, 150 mM NaCl, 0.5 mM TCEP, 0.1% Tween-20, 1 mg/ml BSA, 25 °C; Kd from response against concentration, Y=Rmax*X/(Kd+X)
T1 construct: LC3A, human, full length; The plasmid has a 3C protease site after GST; source: recombinant, expressed in bacteria from the pAL plasmid (modified pGEX-6P2)

[2] = target: T2, LC3C (human, UniProt Q9BXW4 1-126); assay: as above
T2 construct: LC3C, human, full length; The plasmid has a 3C protease site after GST; source: recombinant, expressed in bacteria from the pAL plasmid (modified pGEX-6P2)

[3] = target: T3, GABARAP (human, UniProt O95166 1-117); assay: as above
T3 construct: GABARAP, human, full length; The plasmid has a 3C protease site after GST; also called GABARAP WT; source: recombinant, expressed in bacteria from the pAL plasmid (modified pGEX-6P2)

[4] = target: GABARAP-L1 (recombinant, BLI) (human, UniProt Q9H0R8 1-117); assay: BLI; biotinylated LIR peptide (50 μg/ml) immobilised on streptavidin biosensor, ATG8 in solution; Octet Red 96; 25 mM Tris pH 7.5, 150 mM NaCl, 0.5 mM TCEP, 0.1% Tween-20, 1 mg/ml BSA; 25 °C; Kd from response against concentration
Sequence of GABARAP-L1 (recombinant, BLI) (Q9H0R8 whole entry, looked up): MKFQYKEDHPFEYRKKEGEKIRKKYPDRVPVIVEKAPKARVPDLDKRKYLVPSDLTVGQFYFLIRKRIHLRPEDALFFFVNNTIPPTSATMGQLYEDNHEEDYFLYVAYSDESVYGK

[5] = target: T4, GABARAP (recombinant, BLI) (human, UniProt O95166 1-117); assay: as above
T4 construct: full-length human GABARAP; also called WT GABARAP; source: recombinant; bacterial expression plasmid pAL

[6] = target: T5, GABARAP-L2 (recombinant, BLI) (human, UniProt P60520 1-117); assay: as above
T5 construct: human GABARAP-L2; source: recombinant; bacterial expression plasmid pAL
T5 sequence (P60520 whole entry): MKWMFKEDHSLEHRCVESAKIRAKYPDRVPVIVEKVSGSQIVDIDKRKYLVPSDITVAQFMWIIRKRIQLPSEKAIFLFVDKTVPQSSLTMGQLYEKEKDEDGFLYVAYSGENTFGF

[7] = target: LC3B (recombinant, BLI) (human, UniProt Q9GZQ8 1-120); assay: as above

B1: ULK1 (aa 353-369) LIR peptide (peptide, UniProt O75385 353-369, looked up)
peptide: DTDDFVMVPAQFPGDLV
modifications: not fully specified (N-terminus); also: biotinylated, position not given here
notes: source: synthetic peptide
Binder B1 has a Kd [1] of 7.71 µM, a Kd [2] of 1.9 µM and a Kd [3] of 0.116 µM.

B2: ATG13 LIR peptide (biotinylated, BLI) (peptide)
chain: GGSSGNTHDDFVMIDFKPAFSKDD
modifications: also: biotin, position not given here
For B2, the Kd [4] was 0.53 µM and the Kd [5] was 0.59 µM.

B3: p62 LIR peptide (biotinylated, BLI) (peptide)
chain: SDNCSGGDDDWTHLSSKEVDPSTG
modifications: also: biotin, position not given here
Work on B3 yielded a Kd [6] of 5.2 µM and a Kd [7] of 4.5 µM.

B4: FIP200 LIR peptide (biotinylated, BLI) (peptide)
chain: PDSIDAHTFDFETIPHPNIEQTIH
modifications: also: biotin, position not given here
B4 showed a Kd [4] of 7 µM and a Kd [5] of 5.6 µM.
